# Measured values reported in patent US20190241669A1 (published 2019).
# Legend:
# [1] = molecular target: human BCMA (B-cell maturation antigen) (human) (UniProt Q02223); assay: cell-based or functional assay
# [2] = molecular target: BCMA on MM1S cells (human) (UniProt Q02223); assay: cell-based or functional assay
# [3] = molecular target: BCMA (analyte of Table 4A); assay: SPR (Bio-Rad ProteOn XPR36), IgG amine-coupled, BCMA as analyte, kinetic titration; BCMA species and temperature not stated in Table 4A
# [4] = molecular target: Human BCMA (human) (UniProt Q02223); assay: SPR, IgG on chip, huBCMA analyte
# [5] = molecular target: T1, cynomolgus monkey BCMA (cynomolgus monkey, UniProt A0A2K5UD97 1-53); assay: SPR, IgG on chip, cyBCMA analyte
# T1 construct: Soluble analyte in SPR; construct not described; also called cyBCMA; Cyno BCMA
# [6] = molecular target: Human BCMA (human) (UniProt Q02223); assay: SPR, IgG immobilised, huBCMA analyte, 25 C
# T1 sequence (A0A2K5UD97 entry or part of it): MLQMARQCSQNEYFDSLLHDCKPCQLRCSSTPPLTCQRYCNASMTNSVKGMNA
# Sequence of BCMA (analyte of Table 4A) (Q02223 whole entry): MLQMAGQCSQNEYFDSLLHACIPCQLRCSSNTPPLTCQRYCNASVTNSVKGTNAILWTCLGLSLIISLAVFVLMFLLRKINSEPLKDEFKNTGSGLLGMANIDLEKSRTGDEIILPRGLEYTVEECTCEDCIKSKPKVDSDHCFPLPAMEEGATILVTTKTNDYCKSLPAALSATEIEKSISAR
# Sequence of human BCMA (B-cell maturation antigen) (human) (Q02223 other isoform, or with tags, fused parts or gaps): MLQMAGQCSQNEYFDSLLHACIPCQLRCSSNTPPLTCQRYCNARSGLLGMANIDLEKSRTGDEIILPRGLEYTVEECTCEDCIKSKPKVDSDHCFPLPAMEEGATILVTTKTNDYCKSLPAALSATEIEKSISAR
# Sequence of BCMA on MM1S cells (human) (Q02223 whole entry): as the sequence (Q02223 whole entry) above
binder,measurement,setting,value
COM22-V1 BCMA specific CAR (protein) EVQLLESGGGLVQPGGSLRLSCAASGFTFSSYAMNWVRQAPGKGLEWVSAISDSGGSRWYADSVKGRFTISRDNSKNTLYLQMNSLRAEDTAVYYCTRYWPMDIWGQGTLVTVSSGGGGSGGGGSGGGGSEIVLTQSPGTLSLSPGERATLSCRASVRVSSTYLAWYQQKPGQAPRLLMYDASIRATGIPDRFSGSGSGTDFTLTISRLEPEDFAVYYCQQYMKWPLTFGQGTKVEIKGLAVSTISSFFPPGYQIYIWAPLAGTCGVLLLSLVITLYCKRGRKKLLYIFKQPFMRPVQTTQEEDGCSCRFPEEEEGGCELRVKFSRSADAPAYQQGQNQLYNELNLGRREEYDVLDKRRGRDPEMGGKPRRKNPQEGLYNELQKDKMAEAYSEIGMKGERRRGKGHDGLYQGLSTATKDTYDALHMQALPPR,"% CD107a+ (in CD8+) (degranulation, CAR-T cells with MM1S cells, Donor 3)",[1],76.1%
same,"MFI CD107a+ (degranulation, CAR-T cells with MM1S cells, Donor 3)",[1],2220 MFI
P5AC16-V1 BCMA specific CAR (protein) EVQLLESGGGLVQPGGSLRLSCAASGFTFSSYAMNWVRQAPGKGLEWVSAISDFGGSTYYADSVKGRFTISRDNSKNTLYLQMNSLRAEDTAVYYCARYWPMDIWGQGTLVTVSSGGGGSGGGGSGGGGSEIVLTQSPGTLSLSPGERATLSCRASQSVSDLYLAWYQQKPGQAPRLLMYDASIRATGIPDRFSGSGSGTDFTLTISRLEPEDFAVYYCQQYQTWPLTFGQGTKVEIKGLAVSTISSFFPPGYQIYIWAPLAGTCGVLLLSLVITLYCKRGRKKLLYIFKQPFMRPVQTTQEEDGCSCRFPEEEEGGCELRVKFSRSADAPAYQQGQNQLYNELNLGRREEYDVLDKRRGRDPEMGGKPRRKNPQEGLYNELQKDKMAEAYSEIGMKGERRRGKGHDGLYQGLSTATKDTYDALHMQALPPR,"% CD107a+ (in CD8+) (degranulation, CAR-T cells with MM1S cells, Donor 2)",[1],61.6%
same,"MFI CD107a+ (degranulation, CAR-T cells with MM1S cells, Donor 2)",[1],1860 MFI
P5A-V1 BCMA specific CAR (protein) EVQLLESGGGLVQPGGSLRLSCAASGFTFSSYAMNWVRQAPGKGLEWVSAISDSGGSTYYADSVKGRFTISRDNSKNTLYLQMNSLRAEDTAVYYCARYWPMDIWGQGTLVTVSSGGGGSGGGGSGGGGSEIVLTQSPGTLSLSPGERATLSCRASQSVSSSYLAWYQQKPGQAPRLLMYDASIRATGIPDRFSGSGSGTDFTLTISRLEPEDFAVYYCQQYGSWPLTFGQGTKVEIKGLAVSTISSFFPPGYQIYIWAPLAGTCGVLLLSLVITLYCKRGRKKLLYIFKQPFMRPVQTTQEEDGCSCRFPEEEEGGCELRVKFSRSADAPAYQQGQNQLYNELNLGRREEYDVLDKRRGRDPEMGGKPRRKNPQEGLYNELQKDKMAEAYSEIGMKGERRRGKGHDGLYQGLSTATKDTYDALHMQALPPR,"% CD107a+ (in CD8+) (degranulation, CAR-T cells with MM1S cells, Donor 2)",[1],77.6%
same,"MFI CD107a+ (degranulation, CAR-T cells with MM1S cells, Donor 2)",[1],2670 MFI
P6AP-V1 (protein) EVQLLESGGGLVQPGGSLRLSCAASGFTFGSYAMTWVRQAPGKGLEWVSAISGSGGNTFYADSVKGRFTISRDNSKNTLYLQMNSLRAEDTAVYYCARVSPIAAPMDYWGQGTLVTVSSGGGGSGGGGSGGGGSEIVLTQSPGTLSLSPGERATLSCRASQLGSFYLAWYQQKPGQAPRLLIYGASSRATGIPDRFSGSGSGTDFTLTISRLEPEDFAVYYCQHYNYPPSFTFGQGTKVEIKGLAVSTISSFFPPGYQIYIWAPLAGTCGVLLLSLVITLYCKRGRKKLLYIFKQPFMRPVQTTQEEDGCSCRFPEEEEGGCELRVKFSRSADAPAYQQGQNQLYNELNLGRREEYDVLDKRRGRDPEMGGKPRRKNPQEGLYNELQKDKMAEAYSEIGMKGERRRGKGHDGLYQGLSTATKDTYDALHMQALPPR,% CD107a+ (in CD8+),[2],46.4%
same,MFI CD107a+,[2],1850
P5AC1-V1 BCMA specific CAR (protein) EVQLLESGGGLVQPGGSLRLSCAASGFTFSSYAMNWVRQAPGKGLEWVSAILSSGGSTYYADSVKGRFTISRDNSKNTLYLQMNSLRAEDTAVYYCARYWPMDIWGQGTLVTVSSGGGGSGGGGSGGGGSEIVLTQSPGTLSLSPGERATLSCRGGQSVSSSYLAWYQQKPGQAPRLLMYDASIRATGIPDRFSGSGSGTDFTLTISRLEPEDFAVYYCQQYQSWPLTFGQGTKVEIKGLAVSTISSFFPPGYQIYIWAPLAGTCGVLLLSLVITLYCKRGRKKLLYIFKQPFMRPVQTTQEEDGCSCRFPEEEEGGCELRVKFSRSADAPAYQQGQNQLYNELNLGRREEYDVLDKRRGRDPEMGGKPRRKNPQEGLYNELQKDKMAEAYSEIGMKGERRRGKGHDGLYQGLSTATKDTYDALHMQALPPR,"% CD107a+ (in CD8+) (degranulation, CAR-T cells with MM1S cells, Donor 2)",[1],68.6%
same,"MFI CD107a+ (degranulation, CAR-T cells with MM1S cells, Donor 2)",[1],2190 MFI
"A02_Rd4_6nM_C01 (antibody, V domains shown, IgG) VH: EVQLLESGGGLVQPGGSLRLSCAASGFTFSSYAMNWVRQAPGKGLEWVSAITASGGSTYYADSVKGRFTISRDNSKNTLYLQMNSLRAEDTAVYYCARYWPMSLWGQGTLVTVSS VL: EIVLTQSPGTLSLSPGERATLSCRASQSVSAYYLAWYQQKPGQAPRLLMYDASIRATGIPDRFSGSGSGTDFTLTISRLEPEDFAVYYCQQYERWPLTFGQGTKVEIK",Kd,[3],0.024 nM
same,koff,[3],2.8e-05 s⁻¹
same,kon,[3],1.2e+06 M⁻¹ s⁻¹
same,t1/2,[3],6.85 h
same,Kd,[4],0.03 nM
same,koff,[4],9.2e-05 s⁻¹
same,kon,[4],3.11e+06 M⁻¹ s⁻¹
same,Kd,[5],0.401 nM
same,koff,[5],0.000583 s⁻¹
same,kon,[5],1.45e+06 M⁻¹ s⁻¹
"A02_Rd4_6nM_C16 (antibody, V domains shown, IgG; also called P5AC16; P5A16) VH: EVQLLESGGGLVQPGGSLRLSCAASGFTFSSYAMNWVRQAPGKGLEWVSAISDFGGSTYYADSVKGRFTISRDNSKNTLYLQMNSLRAEDTAVYYCARYWPMDIWGQGTLVTVSS VL: EIVLTQSPGTLSLSPGERATLSCRASQSVSDLYLAWYQQKPGQAPRLLMYDASIRATGIPDRFSGSGSGTDFTLTISRLEPEDFAVYYCQQYQTWPLTFGQGTKVEIK",Kd,[3],0.059 nM
same,koff,[3],6.2e-05 s⁻¹
same,kon,[3],1.1e+06 M⁻¹ s⁻¹
same,t1/2,[3],3.12 h
same,Kd,[4],0.09 nM
same,koff,[4],0.000141 s⁻¹
same,kon,[4],1.56e+06 M⁻¹ s⁻¹
same,Kd,[5],0.118 nM
same,koff,[5],0.000158 s⁻¹
same,kon,[5],1.34e+06 M⁻¹ s⁻¹
"COMBO_Rd4_0.6nM_C29 (antibody, V domains shown, IgG) VH: EVQLLESGGGLVQPGGSLRLSCAASGFTFSSYPMSWVRQAPGKGLEWVSAIGGSGGSLPYADSVKGRFTISRDNSKNTLYLQMNSLRAEDTAVYYCARYWPMDIWGQGTLVTVSS VL: EIVLTQSPGTLSLSPGERATLSCRASQSVSSSYLAWYQQKPGQAPRLLMYDASIRATGIPDRFSGSGSGTDFTLTISRLEPEDFAVYYCQQYQSWPLTFGQGTKVEIK",Kd,[3],0.021 nM
same,koff,[3],0.00014 s⁻¹
same,kon,[3],6.6e+06 M⁻¹ s⁻¹
same,t1/2,[3],1.38 h
same,Kd,[4],0.019 nM
same,koff,[4],0.000277 s⁻¹
same,kon,[4],1.47e+07 M⁻¹ s⁻¹
same,Kd,[5],0.084 nM
same,koff,[5],0.000336 s⁻¹
same,kon,[5],4e+06 M⁻¹ s⁻¹
"L1.GDF/L3.KW/H3.AP (antibody, V domains shown) VH: EVQLLESGGGLVQPGGSLRLSCAASGFTFGSYAMTWVRQAPGKGLEWVSAISGSGGNTFYADSVKGRFTISRDNSKNTLYLQMNSLRAEDTAVYYCARVSPIAAPMDYWGQGTLVTVSS VL: EIVLTQSPGTLSLSPGERATLSCRASQSVGDFYLAWYQQKPGQAPRLLIYGASSRATGIPDRFSGSGSGTDFTLTISRLEPEDFAVYYCKHYGWPPSFTFGQGTKVEIK",Kd,[6],3.93 nM
same,T½,[6],2.51 min
same,koff,[6],0.00461 s⁻¹
same,kon,[6],1.17e+06 M⁻¹ s⁻¹
"L1.GDF/L3.NY/H3.AP (antibody, V domains shown) VH: EVQLLESGGGLVQPGGSLRLSCAASGFTFGSYAMTWVRQAPGKGLEWVSAISGSGGNTFYADSVKGRFTISRDNSKNTLYLQMNSLRAEDTAVYYCARVSPIAAPMDYWGQGTLVTVSS VL: EIVLTQSPGTLSLSPGERATLSCRASQSVGDFYLAWYQQKPGQAPRLLIYGASSRATGIPDRFSGSGSGTDFTLTISRLEPEDFAVYYCQHYNYPPSFTFGQGTKVEIK",Kd,[6],1 nM
same,T½,[6],8.21 min
same,koff,[6],0.00141 s⁻¹
same,kon,[6],1.41e+06 M⁻¹ s⁻¹
PC1C12-V1 BCMA specific CAR (protein) EVQLLESGGGLVQPGGSLRLSCAASGFTFSSYPMSWVRQAPGKGLEWVSAIGGSGGWSYYADSVKGRFTISRDNSKNTLYLQMNSLRAEDTAVYYCARYWPMDSWGQGTLVTVSSGGGGSGGGGSGGGGSEIVLTQSPGTLSLSPGERATLSCWLSQSVSSTYLAWYQQKPGQAPRLLIYDASSRAPGIPDRFSGSGSGTDFTLTISRLEPEDFAVYYCQQYSEWPLTFGQGTKVEIKGLAVSTISSFFPPGYQIYIWAPLAGTCGVLLLSLVITLYCKRGRKKLLYIFKQPFMRPVQTTQEEDGCSCRFPEEEEGGCELRVKFSRSADAPAYQQGQNQLYNELNLGRREEYDVLDKRRGRDPEMGGKPRRKNPQEGLYNELQKDKMAEAYSEIGMKGERRRGKGHDGLYQGLSTATKDTYDALHMQALPPR,"% CD107a+ (in CD8+) (degranulation, CAR-T cells with MM1S cells, Donor 3)",[1],68.2%
same,"MFI CD107a+ (degranulation, CAR-T cells with MM1S cells, Donor 3)",[1],1960 MFI
PC1-V1 BCMA specific CAR (protein) EVQLLESGGGLVQPGGSLRLSCAASGFTFSSYPMSWVRQAPGKGLEWVSAIGGSGGSTYYADSVKGRFTISRDNSKNTLYLQMNSLRAEDTAVYYCARYWPMDSWGQGTLVTVSSGGGGSGGGGSGGGGSEIVLTQSPGTLSLSPGERATLSCRASQSVSSTYLAWYQQKPGQAPRLLIYDASSRAPGIPDRFSGSGSGTDFTLTISRLEPEDFAVYYCQQYSTSPLTFGQGTKVEIKGLAVSTISSFFPPGYQIYIWAPLAGTCGVLLLSLVITLYCKRGRKKLLYIFKQPFMRPVQTTQEEDGCSCRFPEEEEGGCELRVKFSRSADAPAYQQGQNQLYNELNLGRREEYDVLDKRRGRDPEMGGKPRRKNPQEGLYNELQKDKMAEAYSEIGMKGERRRGKGHDGLYQGLSTATKDTYDALHMQALPPR,"% CD107a+ (in CD8+) (degranulation, CAR-T cells with MM1S cells, Donor 3)",[1],75.6%
same,"MFI CD107a+ (degranulation, CAR-T cells with MM1S cells, Donor 3)",[1],2180 MFI
